The values that follow come from PMC4357503.

The target of data set [1] is T1, GST-Puf1p (UniProt P47135 1-1091).
T1 sequence: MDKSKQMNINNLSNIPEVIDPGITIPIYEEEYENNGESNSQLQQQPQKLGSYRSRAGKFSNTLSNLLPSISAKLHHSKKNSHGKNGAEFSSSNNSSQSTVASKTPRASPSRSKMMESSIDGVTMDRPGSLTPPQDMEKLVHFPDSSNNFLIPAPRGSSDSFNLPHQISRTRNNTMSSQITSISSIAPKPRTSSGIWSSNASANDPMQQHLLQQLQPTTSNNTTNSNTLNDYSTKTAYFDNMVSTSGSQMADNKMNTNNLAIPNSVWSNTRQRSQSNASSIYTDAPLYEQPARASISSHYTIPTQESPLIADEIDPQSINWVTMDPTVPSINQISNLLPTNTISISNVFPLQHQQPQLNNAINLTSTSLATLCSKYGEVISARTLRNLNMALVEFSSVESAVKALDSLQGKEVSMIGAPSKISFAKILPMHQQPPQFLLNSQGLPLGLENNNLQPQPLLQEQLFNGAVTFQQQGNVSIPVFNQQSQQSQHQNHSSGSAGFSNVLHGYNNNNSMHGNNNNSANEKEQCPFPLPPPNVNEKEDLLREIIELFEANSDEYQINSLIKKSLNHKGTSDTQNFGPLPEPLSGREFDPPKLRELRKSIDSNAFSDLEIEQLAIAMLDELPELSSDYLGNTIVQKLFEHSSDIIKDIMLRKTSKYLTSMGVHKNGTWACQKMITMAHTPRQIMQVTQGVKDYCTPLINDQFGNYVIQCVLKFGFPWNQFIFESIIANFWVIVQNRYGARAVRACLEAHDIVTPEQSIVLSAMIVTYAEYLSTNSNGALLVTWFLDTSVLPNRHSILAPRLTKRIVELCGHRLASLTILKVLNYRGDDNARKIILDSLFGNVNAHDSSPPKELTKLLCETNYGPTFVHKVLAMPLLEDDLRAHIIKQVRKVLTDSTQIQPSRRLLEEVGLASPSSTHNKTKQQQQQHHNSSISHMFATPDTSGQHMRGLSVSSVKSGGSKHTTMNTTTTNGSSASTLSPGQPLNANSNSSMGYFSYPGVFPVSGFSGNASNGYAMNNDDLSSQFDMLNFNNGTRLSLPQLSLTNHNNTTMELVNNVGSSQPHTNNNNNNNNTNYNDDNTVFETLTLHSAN
Description: EMSA. Background: Mobility shift assays separate free from complexed probe on a gel.

For data set [2], the target named is T2, GST-Puf4p (UniProt P25339 1-888).
T2 sequence: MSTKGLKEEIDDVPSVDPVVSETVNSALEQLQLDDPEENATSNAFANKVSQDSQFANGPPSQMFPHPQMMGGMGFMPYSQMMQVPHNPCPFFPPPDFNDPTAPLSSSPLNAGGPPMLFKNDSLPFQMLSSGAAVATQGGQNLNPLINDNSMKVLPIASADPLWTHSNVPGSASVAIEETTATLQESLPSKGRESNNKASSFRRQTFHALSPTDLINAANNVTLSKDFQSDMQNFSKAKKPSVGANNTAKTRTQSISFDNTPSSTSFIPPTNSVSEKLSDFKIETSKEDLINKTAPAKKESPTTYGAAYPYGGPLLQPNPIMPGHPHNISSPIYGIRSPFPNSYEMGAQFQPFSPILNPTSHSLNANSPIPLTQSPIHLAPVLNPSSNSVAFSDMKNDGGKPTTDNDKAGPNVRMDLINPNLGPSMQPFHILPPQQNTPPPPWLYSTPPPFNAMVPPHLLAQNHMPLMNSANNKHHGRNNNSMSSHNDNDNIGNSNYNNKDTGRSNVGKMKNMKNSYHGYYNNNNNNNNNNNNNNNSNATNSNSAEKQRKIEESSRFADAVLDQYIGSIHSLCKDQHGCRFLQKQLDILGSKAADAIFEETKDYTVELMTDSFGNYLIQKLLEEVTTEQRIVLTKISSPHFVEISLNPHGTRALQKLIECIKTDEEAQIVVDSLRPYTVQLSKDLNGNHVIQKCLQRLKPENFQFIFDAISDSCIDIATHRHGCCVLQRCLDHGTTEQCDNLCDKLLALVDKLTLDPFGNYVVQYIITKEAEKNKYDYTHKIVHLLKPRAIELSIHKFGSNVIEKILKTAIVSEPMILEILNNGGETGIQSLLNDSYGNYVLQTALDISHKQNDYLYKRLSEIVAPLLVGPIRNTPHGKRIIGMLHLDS
Description: EMSA.

For GUAAAGAUUGUGUAUGUAUUUAUAAGAUGAAUA (ssRNA) [YHB1 WT PRE (oWO898)], the binding result in data set [1] and in data set [2] was “binds” in each case.
